Measurements reported in the supplement of paper PMC10724198.
± gives the standard deviation of the averaged measurements.

Tested on: Saccharomyces cerevisiae
Assay: protein stability index of tFT-peptide fusion (C-terminal peptide) (PSI (0-1 scale)); higher = more stable (slower turnover)
Settings: temperature: 30 C
Procedure: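 MPS profiling in S. cerevisiae of the yeast C-terminome library: the last 12 aa of each annotated ORF are fused to the C-terminus of a sfGFP-mCherry timer, after a GGGS linker. Cells are FACS-sorted into 8 mCherry/sfGFP bins and deep-sequenced. PSI runs from 0 (unstable) to 1 (stable); wild type and das1Δ backgrounds, two technical replicates each.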

[1] = genetic background: das1 deletion

Sequence | protein stability index [1] | protein stability index (genetic background: wild type)
PVTPAVSKRYQP [YER084W C-terminal 12 aa] | 0.715 ± 0.0072 | 0.6939 ± 0.003
YNKLESNLQIFM [ABZ1 C-terminal 12 aa] | 0.697 ± 0.017 | 0.744 ± 0.0097
AAVRQRREVNKK [ARO4 C-terminal 12 aa] | 0.6893 ± 0.006 | 0.676 ± 0.04
HCLSLCTIQKMI [YOR231C-A C-terminal 12 aa] | 0.7075 ± 0.0048 | 0.159 ± 0.01
GALVGYTIGAYI [GPI11 C-terminal 12 aa] | 0.666 ± 0.015 | 0.673 ± 0.055
YGANSQQTFEHT [YFR034W-A C-terminal 12 aa] | 0.706 ± 0.011 | 0.728 ± 0.026
EDHKVDGNKKED [VMA21 C-terminal 12 aa] | 0.68 ± 0.017 | 0.707 ± 0.011
GNLSLDWLNLNL [GAT1 C-terminal 12 aa] | 0.735 ± 0.01 | 0.7689 ± 0.0048
LIWELGDGQSGQ [INO4 C-terminal 12 aa] | 0.7444 ± 0.0017 | 0.7182 ± 0.0015
EGEYADNVEPLA [PRY1 C-terminal 12 aa] | 0.7124 ± 0.0048 | 0.685 ± 0.02
LLISMIAAGILL [GAS2 C-terminal 12 aa] | 0.5322 ± 0.0015 | 0.551 ± 0.017
HPRLCVFSCMMI [YJR128W C-terminal 12 aa] | 0.6901 ± 0.0059 | 0.67 ± 0.035
QIRSVFSGVYGG [ASP3-1 C-terminal 12 aa] | 0.691 ± 0.013 | 0.689 ± 0.049
KDVETLSVSDEK [SEO1 C-terminal 12 aa] | 0.686 ± 0.021 | 0.696 ± 0.043
VLGDCQHVTSLL [HST4 C-terminal 12 aa] | 0.697 ± 0.015 | 0.7204 ± 0.0067
LALYKKAYGIEF [STP2 C-terminal 12 aa] | 0.686 ± 0.031 | 0.6671 ± 0.0058
LDDIEKDLRANA [SWI4 C-terminal 12 aa] | 0.7 ± 0.021 | 0.679 ± 0.012
AYECAKHFLMKN [MRS4 C-terminal 12 aa] | 0.7061 ± 0.0038 | 0.5284 ± 0.0001
KRNFCPFHDAVF [PIB1 C-terminal 12 aa] | 0.712 ± 0.01 | 0.716 ± 0.043
SNKLKGNPNQVF [MTG1 C-terminal 12 aa] | 0.721 ± 0.0079 | 0.75045 ± 0.00033
NKKRLSVDYILT [USV1 C-terminal 12 aa] | 0.689 ± 0.05 | 0.679 ± 0.022

Sequence | protein stability index [1] | protein stability index (genetic background: wild type)
KQGPKNLKKTKK [TAF13 C-terminal 12 aa] | 0.704 ± 0.0098 | 0.679 ± 0.0097
DLSLVFGNHEST [HEM15 C-terminal 12 aa] | 0.694 ± 0.038 | 0.727 ± 0.02
RRKKKLMDELNL [ISY1 C-terminal 12 aa] | 0.703 ± 0.04 | 0.669 ± 0.017
MTMILSRMSCSA [IRA2 C-terminal 12 aa] | 0.622 ± 0.014 | 0.609 ± 0.015
YPFTISYISPPY [YPR169W-A C-terminal 12 aa] | 0.71 ± 0.067 | 0.702 ± 0.025
KHKSSSYANRDS [DUS3 C-terminal 12 aa] | 0.6941 ± 0.00079 | 0.693 ± 0.026
TSCNLNSSVVRS [YOR186C-A C-terminal 12 aa] | 0.708 ± 0.035 | 0.695 ± 0.0014
DWLIDVIKEEQL [ARL1 C-terminal 12 aa] | 0.728 ± 0.051 | 0.695 ± 0.028
HKVIAVGRIACQ [SKI7 C-terminal 12 aa] | 0.5897 ± 0.0016 | 0.611 ± 0.016
TKSIFPSVNPSA [GPB2 C-terminal 12 aa] | 0.694 ± 0.02 | 0.669 ± 0.019
GKRRMNPGPSVQ [RPS30A C-terminal 12 aa] | 0.696 ± 0.0085 | 0.6758 ± 0.0052
ELKEGRTFLGRS [APQ13 C-terminal 12 aa] | 0.703 ± 0.014 | 0.695 ± 0.028
GALREVIKLQKQ [SLX9 C-terminal 12 aa] | 0.704 ± 0.035 | 0.656 ± 0.0067
GTFPRNERYYHK [PHA2 C-terminal 12 aa] | 0.71 ± 0.0099 | 0.78 ± 0.021
RHAASLLGMSTK [VPS17 C-terminal 12 aa] | 0.714 ± 0.0089 | 0.762 ± 0.03
QKEPNDQIDVEE [GPN3 C-terminal 12 aa] | 0.673 ± 0.025 | 0.698 ± 0.042
VNLDVTEDDKQK [STE20 C-terminal 12 aa] | 0.6857 ± 0.0021 | 0.67 ± 0.04
FFSRVKSFKDPG [HRT3 C-terminal 12 aa] | 0.7153 ± 0.0048 | 0.688 ± 0.022
AYETLTGSKWSH [ADE1 C-terminal 12 aa] | 0.704 ± 0.01 | 0.704 ± 0.015
CLRTVLKSDEIK [SFA1 C-terminal 12 aa] | 0.647 ± 0.025 | 0.663 ± 0.021
GAPANKRPRRGL [SMD1 C-terminal 12 aa] | 0.737 ± 0.026 | 0.7365 ± 0.0044

Sequence | protein stability index [1] | protein stability index (genetic background: wild type)
NYDLQKLYDKID [QDR3 C-terminal 12 aa] | 0.705 ± 0.037 | 0.6544 ± 0.0034
LKSLKKNLTRDR [MTF2 C-terminal 12 aa] | 0.722 ± 0.033 | 0.6605 ± 0.0051
DTDGAKISIINN [FKH2 C-terminal 12 aa] | 0.7019 ± 0.0064 | 0.7033 ± 0.002
TDDNNIQTILLK [YIG1 C-terminal 12 aa] | 0.679 ± 0.012 | 0.704 ± 0.044
TQLRYTSRGLYR [ECM30 C-terminal 12 aa] | 0.699 ± 0.018 | 0.689 ± 0.023
EREGGDEHDDMA [PWP1 C-terminal 12 aa] | 0.684 ± 0.015 | 0.708 ± 0.035
ESGLQSINESTL [ALY2 C-terminal 12 aa] | 0.7074 ± 0.0047 | 0.706 ± 0.05
VGGIDYIKEFLS [CDA2 C-terminal 12 aa] | 0.7012 ± 0.0019 | 0.264 ± 0.0041
LFSSRNTVCAPY [YIL134C-A C-terminal 12 aa] | 0.7258 ± 0.0047 | 0.727 ± 0.018
ALEEALMDRLQF [ATG29 C-terminal 12 aa] | 0.7094 ± 0.0057 | 0.6947 ± 0.0064
FPQLNGLLRLQH [YPR014C C-terminal 12 aa] | 0.698 ± 0.015 | 0.681 ± 0.028
DVEIDEDEEYFY [SPO12 C-terminal 12 aa] | 0.707 ± 0.0084 | 0.71 ± 0.01
NVPSFGQDELDQ [MPS3 C-terminal 12 aa] | 0.699 ± 0.016 | 0.688 ± 0.011
KSGPEWIAENRD [TUM1 C-terminal 12 aa] | 0.716 ± 0.023 | 0.7166 ± 0.0051
NNRYKNFSPKRL [YHR071C-A C-terminal 12 aa] | 0.746 ± 0.011 | 0.683 ± 0.034
QTTRMLNDLIVS [MGA2 C-terminal 12 aa] | 0.664 ± 0.01 | 0.667 ± 0.017
GLVGQHQGGGSM [RTC5 C-terminal 12 aa] | 0.68 ± 0.0094 | 0.6633 ± 0.0038
EEIRRENFRVIE [KTR7 C-terminal 12 aa] | 0.713 ± 0.012 | 0.677 ± 0.029
LEVTTKPREWVK [HEM13 C-terminal 12 aa] | 0.687 ± 0.018 | 0.712 ± 0.069
KSVVVRSKEKQS [GAA1 C-terminal 12 aa] | 0.7002 ± 0.0014 | 0.441 ± 0.014
PPKSIFDTDDDD [RCN1 C-terminal 12 aa] | 0.741 ± 0.025 | 0.714 ± 0.054

Sequence | protein stability index [1] | protein stability index (genetic background: wild type)
WYSRKNINSRFE [MTR10 C-terminal 12 aa] | 0.714 ± 0.059 | 0.712 ± 0.046
KTLWSRFIEHFV [MIM2 C-terminal 12 aa] | 0.746 ± 0.022 | 0.671 ± 0.023
QTDGMGLVSWWE [RPC25 C-terminal 12 aa] | 0.751 ± 0.011 | 0.749 ± 0.041
GEYLRDEDTLFT [NIP7 C-terminal 12 aa] | 0.727 ± 0.011 | 0.725 ± 0.013
DNQPWQLARCGR [HRT1 C-terminal 12 aa] | 0.698 ± 0.015 | 0.718 ± 0.014
REGVVPPVGITN [EGO4 C-terminal 12 aa] | 0.706 ± 0.031 | 0.66 ± 0.024
PLMTVLGLEKKK [DPC13 C-terminal 12 aa] | 0.703 ± 0.021 | 0.675 ± 0.064
ESTPKDAARSTN [ASF1 C-terminal 12 aa] | 0.69 ± 0.025 | 0.705 ± 0.028
RKRLRTLDNWYR [RNH201 C-terminal 12 aa] | 0.7355 ± 0.0016 | 0.7169 ± 0.0049
VEKVKKFVEENN [YML108W C-terminal 12 aa] | 0.678 ± 0.007 | 0.651 ± 0.069
TEIDESFEMTDF [KEX1 C-terminal 12 aa] | 0.723 ± 0.021 | 0.7471 ± 0.0064
GWYVGRYYRITR [IMD1 C-terminal 12 aa] | 0.714 ± 0.017 | 0.6944 ± 0.0055
LPRDSAMSAPDI [YMR085W C-terminal 12 aa] | 0.7049 ± 0.001 | 0.7081 ± 0.0025
ALGMYFLGPALK [YGL063C-A C-terminal 12 aa] | 0.697 ± 0.02 | 0.7443 ± 0.0028
RKEVIDALVSLS [AIM46 C-terminal 12 aa] | 0.7011 ± 0.0026 | 0.6881 ± 0.0046
TNVGLKLIAIAK [PPM2 C-terminal 12 aa] | 0.655 ± 0.034 | 0.649 ± 0.017
KKTAIDKLITLL [AIM18 C-terminal 12 aa] | 0.681 ± 0.019 | 0.342 ± 0.017
YNDHRLPKRAKK [HSF1 C-terminal 12 aa] | 0.6948 ± 0.0036 | 0.7354 ± 0.0051
IRRYPFLWIPFL [YMR316C-B C-terminal 12 aa] | 0.709 ± 0.04 | 0.147 ± 0.015
